Data published in publication PMC10106851, “Wheat yellow mosaic virus NIb targets TaVTC2 to elicit broad‐spectrum pathogen resistance in wheat” (Plant Biotechnology Journal, 2023).

Tests used:
TaVTC2 = molecular target: T1, TaVTC2 (Triticum aestivum, UniProt A0A650C200); experiment: microscale thermophoresis; assay type: binding
T1 construct: gene GGP2-D; full-length CDS; recombinant GST fusion (TaVTC2-GST) from E. coli BL21
T1 sequence (A0A650C200 1-431): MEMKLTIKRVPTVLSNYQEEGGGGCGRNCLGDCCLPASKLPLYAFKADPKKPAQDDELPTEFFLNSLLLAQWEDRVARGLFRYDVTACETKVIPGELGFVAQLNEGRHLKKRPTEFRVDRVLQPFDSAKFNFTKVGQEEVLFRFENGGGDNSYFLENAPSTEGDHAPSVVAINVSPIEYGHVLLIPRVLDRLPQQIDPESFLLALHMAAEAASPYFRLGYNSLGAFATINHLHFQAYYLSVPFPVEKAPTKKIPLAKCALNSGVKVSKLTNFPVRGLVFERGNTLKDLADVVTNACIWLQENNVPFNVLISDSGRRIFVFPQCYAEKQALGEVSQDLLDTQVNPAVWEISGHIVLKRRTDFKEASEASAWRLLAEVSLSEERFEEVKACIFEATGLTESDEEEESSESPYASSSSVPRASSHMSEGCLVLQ

[1] = molecular target: TaVTC2-GST (wheat (Triticum aestivum)); experiment: ITC; ITC 200 Micro Calorimeter, 20 °C; 10 mM Tris-HCl, 150 mM sodium chloride, pH 7.5; one-set-of-sites model; which protein was in the syringe is not given
NIb-His = molecular target: T2, NIb-His (wheat yellow mosaic virus (WYMV)); experiment: ITC
T2 chain: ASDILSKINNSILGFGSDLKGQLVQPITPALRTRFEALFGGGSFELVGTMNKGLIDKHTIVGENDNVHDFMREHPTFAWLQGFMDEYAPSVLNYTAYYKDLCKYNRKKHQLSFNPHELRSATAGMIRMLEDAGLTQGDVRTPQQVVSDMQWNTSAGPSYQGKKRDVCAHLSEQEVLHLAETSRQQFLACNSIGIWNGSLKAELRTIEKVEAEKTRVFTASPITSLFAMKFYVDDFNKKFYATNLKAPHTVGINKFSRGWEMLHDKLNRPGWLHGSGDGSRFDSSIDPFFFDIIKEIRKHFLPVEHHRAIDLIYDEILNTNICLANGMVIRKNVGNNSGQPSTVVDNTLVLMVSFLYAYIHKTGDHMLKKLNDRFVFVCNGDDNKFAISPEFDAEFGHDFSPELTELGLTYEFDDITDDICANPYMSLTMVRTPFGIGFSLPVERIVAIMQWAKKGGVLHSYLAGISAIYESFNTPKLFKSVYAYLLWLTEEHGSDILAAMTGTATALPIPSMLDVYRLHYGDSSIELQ

purified protein = substrate: Nc1nc2c(ncn2[C@@H]2O[C@H](COP(=O)(O)OP(=O)(O)O[C@H]3O[C@@H](CO)[C@@H](O)[C@@H](O)[C@@H]3O)[C@@H](O)[C@H]2O)c(=O)[nH]1; experiment: purified protein; assay type: biochemical, Triticum aestivum; details: 5 mM K2HPO4, 2.5 mM MgCl2, 50 mM KCl, 50 mM HEPES pH 6.9, 20 °C

## Nc1nc2c(ncn2[C@@H]2O[C@H](COP(=O)(O)OP(=O)(O)O[C@H]3O[C@@H](CO)[C@@H](O)[C@@H](O)[C@@H]3O)[C@@H](O)[C@H]2O)c(=O)[nH]1 [GDP-L-galactose]
TaVTC2
  Kd: 2.7 µM

## NIb-His (natural protein)
[1]
  Ka: 167000 M⁻¹

B1: TaVTC2-GST (enzyme)
chain: T1 sequence (A0A650C200 1-431)
NIb-His
  Kd: 5.98 µM
Purified protein
  Km: 78 ± 22.9 µM
